# Measured values as given in patent US20110086019A1 (DOMANTIS, published 2011).
# T1: TNFR1-FC fusion (human, UniProt P19438 22-211)
# T1 construct: not shown: Fc part not described (captured with goat anti-human IgG (H&L))
# T1 sequence (looked up): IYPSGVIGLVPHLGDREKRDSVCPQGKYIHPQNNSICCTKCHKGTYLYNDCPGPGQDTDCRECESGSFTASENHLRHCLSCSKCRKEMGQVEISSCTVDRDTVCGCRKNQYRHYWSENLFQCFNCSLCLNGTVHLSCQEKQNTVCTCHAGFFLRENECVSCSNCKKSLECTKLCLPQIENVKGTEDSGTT
# How the values were obtained:
# [1] = biological target: human TNFR1 (soluble recombinant protein) (human) (UniProt P19438); assay: phage ELISA on plate coated with 1 nM TNFR1, anti-M13-HRP; phage treated 1 h at room temperature with 10 µg/ml trypsin; phage input 5.64E+09
# [2] = biological target: human TNFR1 (soluble recombinant protein) (human) (UniProt P19438); assay: phage ELISA on plate coated with 1 nM TNFR1, anti-M13-HRP; phage treated 1 h at room temperature with 100 µg/ml trypsin; phage input 2.26E+10
# [3] = biological target: human TNFR1 (soluble recombinant protein) (human) (UniProt P19438); assay: phage ELISA on plate coated with 1 nM TNFR1, anti-M13-HRP; phage treated 1 h at room temperature with 100 µg/ml trypsin; phage input 7.05E+08
# [4] = biological target: human TNFR1 (soluble recombinant protein) (human) (UniProt P19438); assay: phage ELISA on plate coated with 1 nM TNFR1, anti-M13-HRP; phage treated 1 h at room temperature with 10 µg/ml trypsin; phage input 1.41E+09
# [5] = biological target: human TNFR1 (soluble recombinant protein) (human) (UniProt P19438); assay: phage ELISA on plate coated with 1 nM TNFR1, anti-M13-HRP; phage treated 1 h at room temperature with 100 µg/ml trypsin; phage input 3.52E+08
# [6] = biological target: human TNFR1 (soluble recombinant protein) (human) (UniProt P19438); assay: phage ELISA on plate coated with 1 nM TNFR1, anti-M13-HRP; 0 µg/ml trypsin; phage input 1.41E+09
# [7] = biological target: human TNFR1 (soluble recombinant protein) (human) (UniProt P19438); assay: phage ELISA on plate coated with 1 nM TNFR1, anti-M13-HRP; phage treated 1 h at room temperature with 10 µg/ml trypsin; phage input 4.51E+10
# [8] = biological target: human TNFR1 (soluble recombinant protein) (human) (UniProt P19438); assay: phage ELISA on plate coated with 1 nM TNFR1, anti-M13-HRP; phage treated 1 h at room temperature with 10 µg/ml trypsin; phage input 7.05E+08
# [9] = biological target: human TNFR1 (soluble recombinant protein) (human) (UniProt P19438); assay: phage ELISA on plate coated with 1 nM TNFR1, anti-M13-HRP; phage treated 1 h at room temperature with 10 µg/ml trypsin; phage input 3.52E+08
# [10] = biological target: human TNFR1 (soluble recombinant protein) (human) (UniProt P19438); assay: phage ELISA on plate coated with 1 nM TNFR1, anti-M13-HRP; 0 µg/ml trypsin; phage input 7.05E+08
# [11] = biological target: human TNFR1 (soluble recombinant protein) (human) (UniProt P19438); assay: phage ELISA on plate coated with 1 nM TNFR1, anti-M13-HRP; phage treated 1 h at room temperature with 1 mg/ml trypsin; phage input 2.82E+09
# [12] = biological target: human TNFR1 (soluble recombinant protein) (human) (UniProt P19438); assay: phage ELISA on plate coated with 1 nM TNFR1, anti-M13-HRP; 0 µg/ml trypsin; phage input 2.26E+10
# [13] = biological target: human TNFR1 (soluble recombinant protein) (human) (UniProt P19438); assay: phage ELISA on plate coated with 1 nM TNFR1, anti-M13-HRP; phage treated 1 h at room temperature with 1 mg/ml trypsin; phage input 4.51E+10
# [14] = biological target: human TNFR1 (soluble recombinant protein) (human) (UniProt P19438); assay: phage ELISA on plate coated with 1 nM TNFR1, anti-M13-HRP; 0 µg/ml trypsin; phage input 5.64E+09
# [15] = biological target: human TNFR1 (soluble recombinant protein) (human) (UniProt P19438); assay: phage ELISA on plate coated with 1 nM TNFR1, anti-M13-HRP; phage treated 1 h at room temperature with 1 mg/ml trypsin; phage input 7.05E+08
# [16] = biological target: human TNFR1 (soluble recombinant protein) (human) (UniProt P19438); assay: phage ELISA on plate coated with 1 nM TNFR1, anti-M13-HRP; phage treated 1 h at room temperature with 1 mg/ml trypsin; phage input 1.41E+09
# [17] = biological target: human TNFR1 (soluble recombinant protein) (human) (UniProt P19438); assay: phage ELISA on plate coated with 1 nM TNFR1, anti-M13-HRP; 0 µg/ml trypsin; phage input 4.51E+10
# [18] = biological target: human TNFR1 (soluble recombinant protein) (human) (UniProt P19438); assay: phage ELISA on plate coated with 1 nM TNFR1, anti-M13-HRP; phage treated 1 h at room temperature with 10 µg/ml trypsin; phage input 1.13E+10
# [19] = biological target: human TNFR1 (soluble recombinant protein) (human) (UniProt P19438); assay: phage ELISA on plate coated with 1 nM TNFR1, anti-M13-HRP; phage treated 1 h at room temperature with 10 µg/ml trypsin; phage input 2.26E+10
# [20] = biological target: human TNFR1 (soluble recombinant protein) (human) (UniProt P19438); assay: phage ELISA on plate coated with 1 nM TNFR1, anti-M13-HRP; phage treated 1 h at room temperature with 1 mg/ml trypsin; phage input 3.52E+08
# [21] = biological target: human TNFR1 (soluble recombinant protein) (human) (UniProt P19438); assay: phage ELISA on plate coated with 1 nM TNFR1, anti-M13-HRP; 0 µg/ml trypsin; phage input 1.13E+10
# [22] = biological target: human TNFR1 (soluble recombinant protein) (human) (UniProt P19438); assay: phage ELISA on plate coated with 1 nM TNFR1, anti-M13-HRP; 0 µg/ml trypsin; phage input 3.52E+08
# [23] = biological target: human TNFR1 (soluble recombinant protein) (human) (UniProt P19438); assay: phage ELISA on plate coated with 1 nM TNFR1, anti-M13-HRP; phage treated 1 h at room temperature with 1 mg/ml trypsin; phage input 5.64E+09
# [24] = biological target: human TNFR1 (soluble recombinant protein) (human) (UniProt P19438); assay: phage ELISA on plate coated with 1 nM TNFR1, anti-M13-HRP; phage treated 1 h at room temperature with 100 µg/ml trypsin; phage input 1.41E+09
# [25] = biological target: human TNFR1 (soluble recombinant protein) (human) (UniProt P19438); assay: phage ELISA on plate coated with 1 nM TNFR1, anti-M13-HRP; phage treated 1 h at room temperature with 100 µg/ml trypsin; phage input 4.51E+10
# [26] = biological target: human TNFR1 (soluble recombinant protein) (human) (UniProt P19438); assay: phage ELISA on plate coated with 1 nM TNFR1, anti-M13-HRP; phage treated 1 h at room temperature with 1 mg/ml trypsin; phage input 1.13E+10
# [27] = biological target: human TNFR1 (soluble recombinant protein) (human) (UniProt P19438); assay: phage ELISA on plate coated with 1 nM TNFR1, anti-M13-HRP; 0 µg/ml trypsin; phage input 2.82E+09
# [28] = biological target: human TNFR1 (soluble recombinant protein) (human) (UniProt P19438); assay: phage ELISA on plate coated with 1 nM TNFR1, anti-M13-HRP; phage treated 1 h at room temperature with 100 µg/ml trypsin; phage input 2.82E+09
# [29] = biological target: human TNFR1 (soluble recombinant protein) (human) (UniProt P19438); assay: phage ELISA on plate coated with 1 nM TNFR1, anti-M13-HRP; phage treated 1 h at room temperature with 10 µg/ml trypsin; phage input 2.82E+09
# [30] = biological target: human TNFR1 (soluble recombinant protein) (human) (UniProt P19438); assay: phage ELISA on plate coated with 1 nM TNFR1, anti-M13-HRP; phage treated 1 h at room temperature with 1 mg/ml trypsin; phage input 2.26E+10
# [31] = biological target: human TNFR1 (soluble recombinant protein) (human) (UniProt P19438); assay: phage ELISA on plate coated with 1 nM TNFR1, anti-M13-HRP; phage treated 1 h at room temperature with 100 µg/ml trypsin; phage input 1.13E+10
# [32] = biological target: human TNFR1 (soluble recombinant protein) (human) (UniProt P19438); assay: phage ELISA on plate coated with 1 nM TNFR1, anti-M13-HRP; phage treated 1 h at room temperature with 100 µg/ml trypsin; phage input 5.64E+09
# [33] = biological target: T1, TNFR1-FC fusion; assay: human TNFR1 receptor binding assay: inhibition of the binding of TNF-alpha (10 ng/ml) to bead-captured TNFR1-Fc; four replicates
molecule,measurement,setting,value
DOM1h-131 phage,phage ELISA signal,[1],0.695
same,phage ELISA signal,[2],0.377
same,phage ELISA signal,[3],0.084
same,phage ELISA signal,[4],0.409
same,phage ELISA signal,[5],0.084
same,phage ELISA signal,[6],0.85
same,phage ELISA signal,[7],0.784
same,phage ELISA signal,[8],0.286
same,phage ELISA signal,[9],0.213
same,phage ELISA signal,[10],0.705
same,phage ELISA signal,[11],0.114
same,phage ELISA signal,[12],0.944
same,phage ELISA signal,[13],0.284
same,phage ELISA signal,[14],0.962
same,phage ELISA signal,[15],0.084
same,phage ELISA signal,[16],0.089
same,phage ELISA signal,[17],0.916
same,phage ELISA signal,[18],0.86
same,phage ELISA signal,[19],0.802
same,phage ELISA signal,[20],0.08
same,phage ELISA signal,[21],0.949
same,phage ELISA signal,[22],0.577
same,phage ELISA signal,[23],0.133
same,phage ELISA signal,[24],0.115
same,phage ELISA signal,[25],0.418
same,phage ELISA signal,[26],0.183
same,phage ELISA signal,[27],0.946
same,phage ELISA signal,[28],0.141
same,phage ELISA signal,[29],0.573
same,phage ELISA signal,[30],0.229
same,phage ELISA signal,[31],0.284
same,phage ELISA signal,[32],0.196
"DOM1h-131-202 (other, also called GSK1922567A) VH: EVQLLESGGGLVQPGGSLRLSCAASGFTFAHETMVWVRQAPGKGLEWVSHIPPDGQDPFYADSVKGRFTISRDNSKNTLYLQMNSLRAEDTAVYYCALLPKRGPWFDYWGQGTLVTVSS",IC50 (read off the curve),[33],~200 pM
